Data: the nanobody polyreactivity screen of Harvey et al. (2022)

test: yeast display, Sf9 membrane polyspecificity reagent, FACS + sequencing; frameworks hold sequencing errors
Procedure, shortened: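 Galactose induction of a Saccharomyces cerevisiae BJ5465 synthetic nanobody display library ran 36–48 hours. The cells were then stained for 1 hour at 4 °C with 10% biotinylated, detergent-solubilized Sf9 membrane reagent, pulled down on streptavidin microbeads and FACS-sorted into low and high (top ~1%) gates on expression and reagent-binding fluorescence. Labels for polyreactivity follow the gate of origin.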

| Sequence | polyreactivity (PSR sort gate) |
| --- | --- |
| QVQLVESGGGLVQAGGSLRLSCAASGFTFRVYAMGWYRQAPGKERELVAVISGTGGRTYYADSVKGRFTISRDNAKNTVYLQMNSLKPEDTAVYYCARRGRPPAIYDYWGQGTQVTVSS | high polyreactivity |
| QVQLVESGGGLVQAGGSLRLSCAASGFTFRWNAMGWYRQAPGKERELVAAITSRGGSTYYADSVKGRFTISRDNAKNTVYLQINSLKPEDTAVYYCARLAGIGFSYRYDYWGQGTQVTVSS | high polyreactivity |
| QVQLVESGGGLVQAGGSLRLSCAASGFTFRWYAMGSYRQAPGKERELVAAISSSGGSTYYADSVKGRFTISRDNAKNTVYLQMNSLKPEDTAVYYCAAASLRPYQRAYGYEYWGQGTQVTVSS | high polyreactivity |
| QVQLVESGGGLVQAGGSLRLSCAASGFTFRWYAMGWYRQAPGKERELVAAISVSGGSTSYADSVKGRFTISRDNAKNTVYLQMNSLKPEDTAVYYCAAVRWAGYVSDYGYWGQGTQVTVSS | high polyreactivity |
| QVQLVESGGGLVQAGGSLRLSCAASGFTFRYNAMGWYRQAPGKEREFVAAITVTGGSTYYADSVKGRFTISRDNAKNTVYLQMNCLKPEDTAVYYCNAYRYTSSKFGYWGQGTQVTVSS | low polyreactivity |
| QVQLVESGGGLVQAGGSLRLSCAASGFTFRYNAMGWYRQAPGKERELVAAISWSGGSTYYADSVKGRFTISRDNAKNTVYLQMNSLKPEDTAVYYCNRAYGYSFSLNRYDYWGQGTQVTVSS | low polyreactivity |
| QVQLVESGGGLVQAGGSLRLSCAASGFTFRYNTMGWYRQAPGKERELVAAISSSGGRTYYADSVKGRFTISRDNAKNTVYLQMNSLKPEDTAVYYCNAVTRESGGFDYWGQGTQVTVSS | high polyreactivity |
| QVQLVESGGGLVQAGGSLRLSCAASGFTFRYYAMGGYRQAPGKERELVAAITASGGSTNYADSVKGRFTISRDNAKNTVYLQMNSLKPEDTAVYYCAADVRFSYYNRYRGYSAYDNWGQGTQVTVSS | high polyreactivity |
| QVQLVESGGGLVQAGGSLRLSCAASGFTFRYYAMGWYRQAPGKERELVAAISWSGASTYYADSVKGRFTISRDNAKNTVYLQMNSLKPEDTAVYYCAADIPGTYYYWGQGTQVTVSS | high polyreactivity |
| QVQLVESGGGLVQAGGSLRLSCAASGFTFRYYAMGWYRQAPGKERELVAAISWSGGRTYYADSVKGRFTISRDNAKNTVYLQMNSLKPEDTAVYYCAADGYPYFYGDFDYWGQGTQVTVSS | high polyreactivity |
| QVQLVESGGGLVQAGGSLRLSCAASGFTFRYYAMGWYRQAPGKERELVASISARGGITNYADSVKGRFTISRDNAKISVYLQMNSLKPEDTAVYYCAADVFSWYGEYDYWGQGTQVTVSS | high polyreactivity |
| QVQLVESGGGLVQAGGSLRLSCAASGFTFRYYAMGWYRQAPGKERELVASISWSSGSTHYADSVKGRFTISRDNAKNTVYLQMNSLKPEDTAVYYCNARHRTSSMHYWGQGTQVTVSS | high polyreactivity |
| QVQLVESGGGLVQAGGSLRLSCAASGFTFRYYAMGWYRQAPGKEREWVAGISSRGGSTYYADSVKGRFTISRDNAKNTVYLQMNSLKPEDSAVYYCATERFLLGLGYDYWGQGTQVTVSS | high polyreactivity |
| QVQLVESGGGLVQAGGSLRLSCAASGFTFRYYTMGWYRQAPGKERELVAAITWSGGSTYYADSVKGRFTISRDNAKNTVYLQMNSLKPEDTAVYYCNAYPSYVSFDYWGQGTQVTVSS | high polyreactivity |
| QVQLVESGGGLVQAGGSLRLSCAASGFTFRYYVMGWYRQAPGKERELVAAISQSGGSTYYADSVKGRFTISRDNAKNTVYLQMNSLKPEDTAVYYCAARLVKYFRPYDYWGQGTQVTVSS | high polyreactivity |
| QVQLVESGGGLVQAGGSLRLSCAASGFTFSAYDMGWYRQAPGKERELVAAISYSGGSTYYADSVKGRFTISRDTAKNTVYLQMNSLKPEDTAVYYCAADGYYTDYWGQGTQVTVSS | high polyreactivity |
| QVQLVESGGGLVQAGGSLRLSCAASGFTFSFYTMGWYRQAPGKERELVAAISRRGGSTYYADSVKGRFTISRDNAKNTVYLQMNSLKPEDTAVYYCATDHIPSVGVDYWGQGTQVTVSS | high polyreactivity |
| QVQLVESGGGLVQAGGSLRLSCAASGFTFSHNPMGWYRQAPGKERELVATITRGGGNTYYADSVKGRCTISRDNAKNTVYLQMNSLKPEDTAVYYCSAERYKRMDYWGQGTQVTVSS | low polyreactivity |
| QVQLVESGGGLVQAGGSLRLSCAASGFTFSHYAMGWYRQAPGKERELVAAITASGGNTYYADSVKGRFTISRDNAKNTVYLQMNSLKPEDTAVYYCNAVSLKFTRKYDYWGQGTQVTVSS | high polyreactivity |
| QVQLVESGGGLVQAGGSLRLSCAASGFTFSKYAMLWYRQAPGKEREFVAAISSRGGRTYYADSVKGRFTISRDNAKNTVYLQMNSLKPEDTAVYYCAVDVHLVTEYDYWGQGTQVTVSS | high polyreactivity |
| QVQLVESGGGLVQAGGSLRLSCAASGFTFSKYVMGWYRQAPGKERELVAAISKRGGSTYYADSVKGRFTISRDNAKNTVYLQMNSLKPEDTAVYYCAARYYLEPILEMDYWGQGTQVTVSS | high polyreactivity |

| Sequence | polyreactivity (PSR sort gate) |
| --- | --- |
| QVQLVESGGGLVQAGGSLRLSCAASGFTFSNYAMGWYRQAPGKERELVAAISFRTGRTYYADSVKWRFTISRDNAKNTVFLQMNILKPEDTAVYYCAVQPYHSYLHNYWGQGTQVTVSS | high polyreactivity |
| QVQLVESGGGLVQAGGSLRLSCAASGFTFSNYTMGWYRQAPVKERELVARITTRGTSTYYADSVKGRFTISRDNAKNTVYLQMNSLKPEDTAVYYCNARARYPRGYEYDYWGQGTQVTVSS | high polyreactivity |
| QVQLVESGGGLVQAGGSLRLSCAASGFTFSRNAMGWYRQAPGKERELVAAIDSGGSTDYADSVKGRFTISRDNAKNTVYLQMNSLKPEDSAVYYCAKASSATRYVQLRQDYDYWGQGTQVTVSS | low polyreactivity |
| QVQLVESGGGLVQAGGSLRLSCAASGFTFSRNAMGWYRQAPGKERELVAAISSSGGSTYYADSVKGRFTISRDNAKNTVYLQMNSLKPEDTAVYYCNVDHWRRGRSDNYWGQGTQVTVSS | high polyreactivity |
| QVQLVESGGGLVQAGGSLRLSCAASGFTFSRNTMGWYRPAPGKERELVAAIDSTGGSTYYADSVKGRFTISRDNAKNTVYLQMNSLKPEDTAVYYCATVLPDGRVWYEGYYWGQGTQVTVSS | low polyreactivity |
| QVQLVESGGGLVQAGGSLRLSCAASGFTFSRNVMGWYRQAPGKERELVADITLSGASTYYADSVKGRFTISRDNAKNTVYLQMNSLKPEDTADYYCAADPYHWRWGWRHDYWGQGTQVTVSS | low polyreactivity |
| QVQLVESGGGLVQAGGSLRLSCAASGFTFSRYAMGWYRQAPGKERELVAVISSSGSRTYYADSVKGRFTISRDNAKNTVYLQMNSLTPEDTAVYYCAAKSYTVTGYEYWGQGTQVTVSS | high polyreactivity |
| QVQLVESGGGLVQAGGSLRLSCAASGFTFSSNAMGSYRQAPGKERELVAAISFNSTSTYYADSVKVRFTISRDNAKNTVYLQMNSLKPEDTAVYYCAADVPRVQSEPEYDYSGQGTQVTVSS | low polyreactivity |
| QVQLVESGGGLVQAGGSLRLSCAASGFTFSSYAMGWSRQAPGKERELVAAISTRGGSTYYADSVKGRFTISRDNAKNTVYLQMNSLKPEDTAVYYCATGGRGGRRYEYWGQGTQVTVSS | low polyreactivity |
| QVQLVESGGGLVQAGGSLRLSCAASGFTFSSYAMGWYRQAPGKERELVAAISTRGGSTYYADSVKGRFTISRDNAKNTVYLQMNSLKPEDTAVYYCATGGRGGRRYEYWGQGTQVTVSS | low polyreactivity |
| QVQLVESGGGLVQAGGSLRLSCAASGFTFSSYAMGWYRQAPGKERELVAAISTRGGSTYYADSVKGRFTISRDNAKNTVYLQMNSLNPEDSAVYYCAAPVNTSGDEYGYWGQGTQVTVSS | low polyreactivity |
| QVQLVESGGGLVQAGGSLRLSCAASGFTFSSYAMGWYRQAPGKERELVAAITWGGGRTYYADSVKGRFTISRDNAKNTVYLQINSLKPEDTAVYYCNVPQWVSIWRKNNYWGLGTQVTVSS | high polyreactivity |
| QVQLVESGGGLVQAGGSLRLSCAASGFTFSTYAMGWYRQAPGKERELVAAISSGDSTYADSVKGRFTISRDNAKNTVYLQMNSLKPEDTAVYYCAAYVSVPYRNYYYWGQGTQVTVSS | high polyreactivity |
| QVQLVESGGGLVQAGGSLRLSCAASGFTFSTYAMGWYRQAPGKERELVSAISFSGGSTYYADSVKGRFTISRDNAKNTVYLQMNSLKPEDTAVYYCARAYTKYFEIYFIYALLYGHWGQGTQVTVSS | low polyreactivity |
| QVQLVESGGGLVQAGGSLRLSCAASGFTFSTYTMGWYRQAPGKERELVAAIRRSGDSTYYADSVKGRFTISRDNAKNTVYLQMNSLKPEDTAVYYCNAVRYRFERFDYWGQGTQVTVSS | high polyreactivity |
| QVQLVESGGGLVQAGGSLRLSCAASGFTFSVNDMGWYRQAPGKERELVAGISRGDNTNYADSVKGRFTISRDNAKNTVYLQMNSLKPEDTAVYYCAADFSLGLYRSWFGDYDYWGQGTQVTVSS | low polyreactivity |
| QVQLVESGGGLVQAGGSLRLSCAASGFTFSWYVMGWYRQAPGKERELVAAISSSGGSTYYADSVKGRFTISRDNAKNTVYLQMKSLKPEDTAVYYCSAGRPYGDGDYWGQGTQVTVSS | high polyreactivity |
| QVQLVESGGGLVQAGGSLRLSCAASGFTFSYNAMGWYRQAPGKERELVAAISSTGTSTYYADSVKGRFTISRDNAKNTVYLQMISLKPEDTAVYYCNAYGYDGYYAGRHGYWGQGTQVTVSS | low polyreactivity |
| QVQLVESGGGLVQAGGSLRLSCAASGFTFSYNAMGWYRQAPGKERELVAGISYGGGNTFYADSVKGRFTISRDNAKNTVYLQMNSLKPEDTAVYDCAAVNKSGTYVEYDYWGQGTQVTVSS | low polyreactivity |
| QVQLVESGGGLVQAGGSLRLSCAASGFTFSYYAMGWYRQAPGKERELVAAITTSGGRTYYADSVKGRFTISRDNAKNTVYLQMNSLKPEDPAVYYCAATYPRYYSGEFDYWGQGTQVTVSS | high polyreactivity |
